This series can be described thus: protein stability index of a GFP-peptide fusion (GPS, HEK-293T) (PSI 1-6); higher = more stable.
[1] abbreviates: treatment: DMSO, c terminus: a fixed tail appended.
The mark [2] stands for this setting: treatment: MLN4924 1 uM, 8 h, c terminus: a fixed tail appended.

± gives the standard deviation.
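Also: 24-mer peptide tiles fused after GFP, lentivirally expressed, FACS-sorted into six equal bins by GFP/DsRed ratio, decoded by Illumina sequencing, PSI is the read-weighted mean bin number.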

Take LVQHGVKPQEIVQVEIFSTNPDLY [IQUB]: the protein stability index reads like this: under setting [1], 2.15 ± 0.21; under setting [2], 2.32 ± 0.33.

In the case of GAVAPPVSGDLTKEDIDLIDILWR [NFE2L1], the protein stability index is, setting by setting: under setting [1], 3.16 ± 0.17; under setting [2], 3.67 ± 0.53.

As to CCCCYQSKSLMTSVPMNGTSIQWK [EDNRA], the protein stability index is, setting by setting: under setting [1], 2.2 ± 0.26; under setting [2], 2.39 ± 0.31.

In the case of MARGRKMSKPRAVEAAAAAAAVAA [KMT5A], the protein stability index under setting [2] came to 4.4 ± 0.55.

For the sequence RARVKEKFSPEAFTEQLYRYVTKL [ALG2], the protein stability index worked out at 2.36 ± 0.48 under setting [1] and 2.05 ± 0.46 under setting [2].

On to VAEAFRALASAQCPQFGIPRKRLK [SPOPL], for which the protein stability index was 2.73 ± 0.42 under setting [1] and 3 ± 0.34 under setting [2].

Take KQGQCTKGDKCKFSHDLTLERKCE [ZC3H15]: the protein stability index was 4.75 ± 0.15 under setting [1] and 4.6 ± 0.1 under setting [2].

As to FKKGNRYIRCQKEVGKSFERHKLK [SMG5], the protein stability index by setting is: under setting [1], 2.75 ± 0.23; under setting [2], 2.85 ± 0.14.

Turning to TDILDLENQRENLEQPFLSVFKKG [PLEKHN1], the protein stability index by setting is: under setting [1], 4.52 ± 0.07; under setting [2], 4.24 ± 0.21.

Regarding YSRRLQVQERLTKQIAVAITEALR [GCH1], the protein stability index is 2.34 ± 0.47 under setting [1] and 2.19 ± 0.38 under setting [2].

For the sequence SVKLRGSSLFMDTEKSGKREFDVR [WEE1], the protein stability index by setting is: under setting [1], 3.86 ± 0.36; under setting [2], 3.94 ± 0.095.

As for RPHEVLLCSDLVKAYQRCVSAAHK [CHCHD6], the protein stability index by setting is: under setting [1], 2.64 ± 0.11; under setting [2], 2.75 ± 0.61.

For the sequence REEMKLKECVSILPRKESPSVRSS [TNFSF13B], the protein stability index stood at 4.61 ± 0.14 under setting [1] and 4.73 ± 0.2 under setting [2].

Consider PSRRSENRVVVSGLPPSGSWQDLK [SRSF1], for which the protein stability index is 3.89 ± 0.33 under setting [1] and 4.21 ± 0.22 under setting [2].

Regarding ADTEEPTKDPDVAFHGLSLGLSLT [PSD2], the protein stability index was found to be 4.37 ± 0.25 under setting [1] and 4.44 ± 0.27 under setting [2].

On to KIDLENTLEQEQEALVNRLWKRMD [CCDC6], for which the protein stability index under setting [1] turned out to be 3.23 ± 0.41 and the protein stability index under setting [2] is 3.78 ± 0.39.

AALAVNTSILSRLPPEALTAPSGG [RNF208]: the protein stability index under setting [1] came out at 3.44 ± 0.24 and the protein stability index under setting [2] was found to be 3.45 ± 0.14.

For AGGHPAQLGLGRGASTFKEEPQTV [JUNB], the protein stability index under setting [1] came out at 4.511 ± 0.035 and the protein stability index under setting [2] turned out to be 4.58 ± 0.32.

For the sequence MSGGPMGGRPGGRGAPAVQQNIPS [WAS], the protein stability index was 4.31 ± 0.35 under setting [1] and 4.62 ± 0.18 under setting [2].

In the case of MDDSTEREQSRLTSCLKKREEMKL [TNFSF13B], the protein stability index by setting is: under setting [1], 5.04 ± 0.19; under setting [2], 5.16 ± 0.11.

Turning to GRDELGGGRRPGTSPALLQGTAEE [CDKN1A], the protein stability index reads like this: under setting [1], 5.4 ± 0.34; under setting [2], 5.41 ± 0.24.

In the case of WTNQQKLYSRTGDIVEFVCKSGYH [CFHR2], the protein stability index came to 2.46 ± 0.35 under setting [1] and 2.5 ± 0.33 under setting [2].

MPKNSKVTQREHSSEHVTESVADL [SLC6A17] displayed a protein stability index under setting [1] of 5.4 ± 0.14 and a protein stability index under setting [2] of 5.45 ± 0.085.

For the sequence KKEMNKSDLNTNNLLFKPPVESHI [KMT2E], the protein stability index runs as follows: under setting [1], 3.47 ± 0.39; under setting [2], 4.12 ± 0.26.

MPDEPVEAPALPAPAAPMVSKGAE [BRD3]: the protein stability index was determined as 5.17 ± 0.37 under setting [1] and 5.37 ± 0.3 under setting [2].

As to ETKLHLLRQEMVNLRATDVRLMRQ [LURAP1L], the protein stability index is, setting by setting: under setting [1], 2.96 ± 0.34; under setting [2], 3.17 ± 0.16.

On to ELSLVTLFRCIQNMPETLPNNSCY [TNFSF13B], for which the protein stability index is, setting by setting: under setting [1], 3.65 ± 1.3; under setting [2], 2.94 ± 0.5.

For the sequence RFRFGQDQLLLATGLNNGRIKIWD [WSB1], the protein stability index reads like this: under setting [1], 2.25 ± 0.33; under setting [2], 2.5 ± 0.32.

On to FNGDFVDRGKDSVEILMILFAFML [PPEF2], for which the protein stability index reads like this: under setting [1], 2.62 ± 0.54; under setting [2], 2.15 ± 0.27.

With TLYANNVQRVMAQALGIPATECEF [LPCAT4], the protein stability index was 2.49 ± 0.22 under setting [1] and 2.58 ± 0.19 under setting [2].

For the sequence KKIYCRICMAQIAYSGNTSNLSYH [ZBED1], the protein stability index runs as follows: under setting [1], 2.19 ± 0.28; under setting [2], 2.13 ± 0.3.

Turning to RQKGTGKEYAAKFIKKRRLSSSRR [DAPK3], the protein stability index is, setting by setting: under setting [1], 4.2 ± 0.24; under setting [2], 4.5 ± 0.29.

Turning to AAQMMDIWVPIKIGALTYFAQADA [ACSBG2], the protein stability index amounted to 2.28 ± 0.69 under setting [1] and 2.85 ± 0.49 under setting [2].

For KRWQKNNWPKNSNGVTQKASAPTY [NANOGP8], the protein stability index by setting is: under setting [1], 3.39 ± 0.17; under setting [2], 3.47 ± 0.21.

On to HDGHLYLGSFRSPFLCRLSLQAV [APMAP], for which the protein stability index (treatment: DMSO, c terminus: native) amounted to 2.82 ± 0.33 and the protein stability index (treatment: MLN4924 1 uM, 8 h, c terminus: native) is 3.31 ± 0.55.

Take VAGDCLDEKQCKQCANKVLQHMKA [LRRC59]: the protein stability index runs as follows: under setting [1], 3.74 ± 0.14; under setting [2], 3.9 ± 0.43.

In the case of SSCENKRADLVFIIDSSRSVNTHD [MATN2], the protein stability index under setting [1] was determined as 2.81 ± 0.22 and the protein stability index under setting [2] is 2.92 ± 0.13.

On to KLLSVIVWMLMLLLAVPNIILTNQ [P2RY14], for which the protein stability index is, setting by setting: under setting [1], 2.79 ± 0.47; under setting [2], 3.21 ± 0.41.

For the sequence MASLSRPSLPSCLCSFLLLLLLQV [MOG], the protein stability index runs as follows: under setting [1], 2.5 ± 0.41; under setting [2], 2.28 ± 0.19.

On to NLHSLALDFCDFTAEMARVLTDSN [FBXO33], for which the protein stability index under setting [1] worked out at 1.84 ± 0.25 and the protein stability index under setting [2] is 2.49 ± 0.61.

Regarding LQRPSYKFFFKSMDDDFGVVKEEI [DVL3], the protein stability index is, setting by setting: under setting [1], 2.76 ± 0.29; under setting [2], 2.85 ± 0.35.

On to TPPPGPASAQPLPAPEAAHTTGPT [TFE3], for which the protein stability index under setting [1] stood at 5.38 ± 0.27 and the protein stability index under setting [2] was determined as 5.38 ± 0.084.

Take GGSGPAGLRASTSDGILRGNGTGY [RHOBTB2]: the protein stability index is, setting by setting: under setting [1], 4.31 ± 0.27; under setting [2], 4.24 ± 0.39.

Consider QYALELLTVYAWERGSMKTHFNTA [OAS1], for which the protein stability index under setting [1] was found to be 3 ± 0.24 and the protein stability index under setting [2] was 2.86 ± 0.43.

As for LGVLHPNTKLRQAERLFENQLVGP [APMAP], the protein stability index worked out at 2.57 ± 0.32 under setting [1] and 3.16 ± 0.24 under setting [2].

For the sequence CILLSALGYLLLGAATNVFLFVLA [MFSD9], the protein stability index reads like this: under setting [1], 2.53 ± 0.45; under setting [2], 2.77 ± 0.27.

Take YFKEAELKDLLLQVGRGLRYIHSM [WEE1]: the protein stability index under setting [1] worked out at 2.48 ± 0.8 and the protein stability index under setting [2] came to 2.15 ± 0.34.

Take EYQLNDSAAYYLNDLDRIAQPNYI [GNAI1]: the protein stability index under setting [1] was 2.61 ± 0.15 and the protein stability index under setting [2] is 2.79 ± 0.49.

Regarding MALRGPAGLGPGSRRPLDEAVAGA [DENND6A], the protein stability index under setting [1] turned out to be 4.12 ± 0.42 and the protein stability index under setting [2] was 4.53 ± 0.19.

FSEIISSISDVKFSHSGRYIMTRD [PPP2R2B] came in with a protein stability index under setting [1] of 2.52 ± 0.28 and a protein stability index under setting [2] of 2.53 ± 0.29.

As to KVPIAQDELALSLGYAASLEASVQ [C2CD2L], the protein stability index was 3.65 ± 0.33 under setting [1] and 3.64 ± 0.34 under setting [2].

Turning to SYLIEKVKRKKNVLRLCCKKLKIF [PRAME], the protein stability index stood at 3.23 ± 0.36 under setting [1] and 3.22 ± 0.28 under setting [2].

With YSHRETVNGSWYIQDLCEMLGKYG [CASP6], the protein stability index is, setting by setting: under setting [1], 1.93 ± 0.39; under setting [2], 2.1 ± 0.35.

The values above are taken from the supplement of paper PMC10567573.
